# Literature values in patent US20020119948A1, “METHOD FOR EXTENDING THE SATIETY OF FOOD BY ADDING A NUTRITIONAL COMPOSITION DESIGNED TO STIMULATE CHOLECYSTOKININ(CCK)” (PacificHealth Laboratories, Inc., priority 2000, published 2002).
# B1: cholecystokinin (peptide, UniProt P06307 21-115, looked up)
# Cholecystokinin: QPVPPADPAGSGLQRAEEAPRRQLRVSQRTDGESRAHLGALLARYIQQARKAPSGRMSIVKNLQNLDPSHRISDRDYMGWMDFGRRSAEEYEYPS
# modifications: Cholecystokinin
# Tested on: Individuals
# Conditions: CCK administered by injection
molecule,measurement,value
B1,decrease in caloric intake,16-22%
